Assay results published in the Human Domainome abundance scans (Beltran et al. 2025).
± gives the uncertainty stated by the source.

B1: Peroxisome proliferator-activated receptor delta, residues 71 to 145; numbered along this chain, Q03181 (parent)
chain: NMECRVCGDKASGFHYGVHACEGCKGFFRRTIRMKLEYEKCERSCKIQKKNRNKCQYCRFQKCLALGMSHNAIRF

Variants of: B1
Experiment: abundance fitness (aPCA) (normalised: wild type 0, dead -1); higher = more abundant; growth selection in yeast, the domain comes from the species named
Details: Homo sapiens

Variant | abundance fitness
NMECRVCGDKASGFHYGVHACEGCKGFFRRTIRMKLEYEKCERSCKIQKKNRNKCQYCRFQKCLALGMSFNAIRF [H70F] | 0.039 ± 0.15
NMECRVCGDKASGFHYGVHACEGCKGFFRRTIRMKLEYEKCERSCKIQKKNRNKCQYCRFQKCLALGMSCNAIRF [H70C] | -0.206 ± 0.12
NMECRVCGDKASGFHYGVHACEGCKGFFRRTIRMKLEYEKCERSCKIQKKNRNKCQYCRFQKCLALGMSWNAIRF [H70W] | -0.177 ± 0.072
NMECRVCGDKASGFHYGVHACEGCKGFFRRTIRMKLEYEKCERSCKIQKKNRNKCQYCRFQKCLALGMSNNAIRF [H70N] | 0.013 ± 0.087
NMECRVCGDKASGFHYGVHACEGCKGFFRRTIRMKLEYEKCERSCKIQKKNRNKCQYCRFQKCLALGMSQNAIRF [H70Q] | 0.108 ± 0.095
NMECRVCGDKASGFHYGVHACEGCKGFFRRTIRMKLEYEKCERSCKIQKKNRNKCQYCRFQKCLALGMSGNAIRF [H70G] | 0.048 ± 0.055
NMECRVCGDKASGFHYGVHACEGCKGFFRRTIRMKLEYEKCERSCKIQKKNRNKCQYCRFQKCLALGMSMNAIRF [H70M] | 0.09 ± 0.08
NMECRVCGDKASGFHYGVHACEGCKGFFRRTIRMKLEYEKCERSCKIQKKNRNKCQYCRFQKCLALGMSENAIRF [H70E] | 0.172 ± 0.091
NMECRVCGDKASGFHYGVHACEGCKGFFRRTIRMKLEYEKCERSCKIQKKNRNKCQYCRFQKCLALGMSANAIRF [H70A] | 0.02 ± 0.084
NMECRVCGDKASGFHYGVHACEGCKGFFRRTIRMKLEYEKCERSCKIQKKNRNKCQYCRFQKCLALGMSTNAIRF [H70T] | 0.157 ± 0.11
NMECRVCGDKASGFHYGVHACEGCKGFFRRTIRMKLEYEKCERSCKIQKKNRNKCQYCRFQKCLALGMSYNAIRF [H70Y] | -0.162 ± 0.14
NMECRVCGDKASGFHYGVHACEGCKGFFRRTIRMKLEYEKCERSCKIQKKNRNKCQYCRFQKCLALGMSVNAIRF [H70V] | 0.099 ± 0.065
NMECRVCGDKASGFHYGVHACEGCKGFFRRTIRMKLEYEKCERSCKIQKKNRNKCQYCRFQKCLALGMSSNAIRF [H70S] | 0.015 ± 0.067
NMECRVCGDKASGFHYGVHACEGCKGFFRRTIRMKLEYEKCERSCKIQKKNRNKCQYCRFQKCLALGMSINAIRF [H70I] | 0.198 ± 0.09
NMECRVCGDKASGFHYGVHACEGCKGFFRRTIRMKLEYEKCERSCKIQKKNRNKCQYCRFQKCLALGMSKNAIRF [H70K] | 0.019 ± 0.1
NMECRVCGDKASGFHYGVHACEGCKGFFRRTIRMKLEYEKCERSCKIQKKNRNKCQYCRFQKCLALGMSRNAIRF [H70R] | 0.063 ± 0.052
NMECRVCGDKASGFHYGVHACEGCKGFFRRTIRMKLEYEKCERSCKIQKKNRNKCQYCRFQKCLALGMSPNAIRF [H70P] | 0.185 ± 0.12
NMECRVCGDKASGFHYGVHACEGCKGFFRRTIRMKLEYEKCERSCKIQKKNRNKCQYCRFQKCLALGMSDNAIRF [H70D] | 0.394 ± 0.1
NMECRVCGDKASGFHYGVHACEGCKGFFRRTIRMKLEYEKCERSCKIQKKNRNKCQYCRFQKCLALSMSHNAIRF [G67S] | -0.694 ± 0.077
NMECRVCGDKASGFHYGVHACEGCKGFFRRTIRMKLEYEKCERSCKIQKKNRNKCQYCRFQKCLALRMSHNAIRF [G67R] | -0.584 ± 0.052
NMECRVCGDKASGFHYGVHACEGCKGFFRRTIRMKLEYEKCERSCKIQKKNRNKCQYCRFQKCLALYMSHNAIRF [G67Y] | -0.854 ± 0.23
NMECRVCGDKASGFHYGVHACEGCKGFFRRTIRMKLEYEKCERSCKIQKKNRNKCQYCRFQKCLALQMSHNAIRF [G67Q] | -0.604 ± 0.16
NMECRVCGDKASGFHYGVHACEGCKGFFRRTIRMKLEYEKCERSCKIQKKNRNKCQYCRFQKCLALNMSHNAIRF [G67N] | -0.36 ± 0.1
NMECRVCGDKASGFHYGVHACEGCKGFFRRTIRMKLEYEKCERSCKIQKKNRNKCQYCRFQKCLALWMSHNAIRF [G67W] | -0.666 ± 0.1
NMECRVCGDKASGFHYGVHACEGCKGFFRRTIRMKLEYEKCERSCKIQKKNRNKCQYCRFQKCLALPMSHNAIRF [G67P] | -0.562 ± 0.13

Variant | abundance fitness
NMECRVCGDKASGFHYGVHACEGCKGFFRRTIRMKLEYEKCERSCKIQKKNRNKCQYCRFQKCLALVMSHNAIRF [G67V] | -0.673 ± 0.075
NMECRVCGDKASGFHYGVHACEGCKGFFRRTIRMKLEYEKCERSCKIQKKNRNKCQYCRFQKCLALTMSHNAIRF [G67T] | -0.687 ± 0.12
NMECRVCGDKASGFHYGVHACEGCKGFFRRTIRMKLEYEKCERSCKIQKKNRNKCQYCRFQKCLALGKSHNAIRF [M68K] | -0.769 ± 0.14
NMECRVCGDKASGFHYGVHACEGCKGFFRRTIRMKLEYEKCERSCKIQKKNRNKCQYCRFQKCLALGVSHNAIRF [M68V] | -0.652 ± 0.074
NMECRVCGDKASGFHYGVHACEGCKGFFRRTIRMKLEYEKCERSCKIQKKNRNKCQYCRFQKCLALGTSHNAIRF [M68T] | -0.769 ± 0.14
NMECRVCGDKASGFHYGVHACEGCKGFFRRTIRMKLEYEKCERSCKIQKKNRNKCQYCRFQKCLALGYSHNAIRF [M68Y] | -0.718 ± 0.16
NMECRVCGDKASGFHYGVHACEGCKGFFRRTIRMKLEYEKCERSCKIQKKNRNKCQYCRFQKCLALGSSHNAIRF [M68S] | -0.746 ± 0.1
NMECRVCGDKASGFHYGVHACEGCKGFFRRTIRMKLEYEKCERSCKIQKKNRNKCQYCRFQKCLALGCSHNAIRF [M68C] | -0.9 ± 0.17
NMECRVCGDKASGFHYGVHACEGCKGFFRRTIRMKLEYEKCERSCKIQKKNRNKCQYCRFQKCLALGDSHNAIRF [M68D] | -0.696 ± 0.16
NMECRVCGDKASGFHYGVHACEGCKGFFRRTIRMKLEYEKCERSCKIQKKNRNKCQYCRFQKCLALGHSHNAIRF [M68H] | -0.771 ± 0.25
NMECRVCGDKASGFHYGVHACEGCKGFFRRTIRMKLEYEKCERSCKIQKKNRNKCQYCRFQKCLALGLSHNAIRF [M68L] | -0.725 ± 0.089
NMECRVCGDKASGFHYGVHACEGCKGFFRRTIRMKLEYEKCERSCKIQKKNRNKCQYCRFQKCLALGNSHNAIRF [M68N] | -0.81 ± 0.37
NMECRVCGDKASGFHYGVHACEGCKGFFRRTIRMKLEYEKCERSCKIQKKNRNKCQYCRFQKCLALGWSHNAIRF [M68W] | -0.148 ± 0.049
NMECRVCGDKASGFHYGVHACEGCKGFFRRTIRMKLEYEKCERSCKIQKKNRNKCQYCRFQKCLALGISHNAIRF [M68I] | -0.703 ± 0.15
NMECRVCGDKASGFHYGVHACEGCKGFFRRTIRMKLEYEKCERSCKIQKKNRNKCQYCRFQKCLALGQSHNAIRF [M68Q] | -0.668 ± 0.12
NMECRVCGDKASGFHYGVHACEGCKGFFRRTIRMKLEYEKCERSCKIQKKNRNKCQYCRFQKCLALGESHNAIRF [M68E] | -0.794 ± 0.12
NMECRVCGDKASGFHYGVHACEGCKGFFRRTIRMKLEYEKCERSCKIQKKNRNKCQYCRFQKCLALGRSHNAIRF [M68R] | -0.698 ± 0.065
NMECRVCGDKASGFHYGVHACEGCKGFFRRTIRMKLEYEKCERSCKIQKKNRNKCQYCRFQKCLALGFSHNAIRF [M68F] | -0.529 ± 0.11
NMECRVCGDKASGFHYGVHACEGCKGFFRRTIRMKLEYEKCERSCKIQKKNRNKCQYCRFQKCLALGGSHNAIRF [M68G] | -0.822 ± 0.081
NMECRVCGDKASGFHYGVHACEGCKGFFRRTIRMKLEYEKCERSCKIQKKNRNKCQYCRFQKCLALGPSHNAIRF [M68P] | -0.64 ± 0.11
NMECRVCGDKASGFHYGVHACEGCKGFFRRTIRMKLEYEKCERSCKIQKKNRNKCQYCRFQKCLALGMRHNAIRF [S69R] | -0.162 ± 0.042
NMECRVCGDKASGFHYGVHACEGCKGFFRRTIRMKLEYEKCERSCKIQKKNRNKCQYCRFQKCLALGMFHNAIRF [S69F] | -0.268 ± 0.075
NMECRVCGDKASGFHYGVHACEGCKGFFRRTIRMKLEYEKCERSCKIQKKNRNKCQYCRFQKCLALGMCHNAIRF [S69C] | -0.138 ± 0.063
NMECRVCGDKASGFHYGVHACEGCKGFFRRTIRMKLEYEKCERSCKIQKKNRNKCQYCRFQKCLALGMQHNAIRF [S69Q] | 0.088 ± 0.058
NMECRVCGDKASGFHYGVHACEGCKGFFRRTIRMKLEYEKCERSCKIQKKNRNKCQYCRFQKCLALGMKHNAIRF [S69K] | 0.023 ± 0.051

Variant | abundance fitness
NMECRVCGDKASGFHYGVHACEGCKGFFRRTIRMKLEYEKCERSCKIQKKNRNKCQYCRFQKCLALGMAHNAIRF [S69A] | -0.007 ± 0.045
NMECRVCGDKASGFHYGVHACEGCKGFFRRTIRMKLEYEKCERSCKIQKKNRNKCQYCRFQKCLALGMNHNAIRF [S69N] | -0.118 ± 0.08
NMECRVCGDKASGFHYGVHACEGCKGFFRRTIRMKLEYEKCERSCKIQKKNRNKCQYCRFQKCLALGMLHNAIRF [S69L] | -0.053 ± 0.047
NMECRVCGDKASGFHYGVHACEGCKGFFRRTIRMKLEYEKCERSCKIQKKNRNKCQYCRFQKCLALGMVHNAIRF [S69V] | -0.057 ± 0.043
NMECRVCGDKASGFHYGVHACEGCKGFFRRTIRMKLEYEKCERSCKIQKKNRNKCQYCRFQKCLALGMYHNAIRF [S69Y] | -0.213 ± 0.095
NMECRVCGDKASGFHYGVHACEGCKGFFRRTIRMKLEYEKCERSCKIQKKNRNKCQYCRFQKCLALGMHHNAIRF [S69H] | -0.045 ± 0.089
NMECRVCGDKASGFHYGVHACEGCKGFFRRTIRMKLEYEKCERSCKIQKKNRNKCQYCRFQKCLALGMMHNAIRF [S69M] | 0.029 ± 0.054
NMECRVCGDKASGFHYGVHACEGCKGFFRRTIRMKLEYEKCERSCKIQKKNRNKCQYCRFQKCLALGMDHNAIRF [S69D] | 0.147 ± 0.05
NMECRVCGDKASGFHYGVHACEGCKGFFRRTIRMKLEYEKCERSCKIQKKNRNKCQYCRFQKCLALGMPHNAIRF [S69P] | -0.461 ± 0.092
NMECRVCGDKASGFHYGVHACEGCKGFFRRTIRMKLEYEKCERSCKIQKKNRNKCQYCRFQKCLALGMWHNAIRF [S69W] | -0.191 ± 0.059
NMECRVCGDKASGFHYGVHACEGCKGFFRRTIRMKLEYEKCERSCKIQKKNRNKCQYCRFQKCLALGMGHNAIRF [S69G] | -0.001 ± 0.035
NMECRVCGDKASGFHYGVHACEGCKGFFRRTIRMKLEYEKCERSCKIQKKNRNKCQYCRFQKCLALGMEHNAIRF [S69E] | 0.022 ± 0.043
NMECRVCGDKASGFHYGVHACEGCKGFFRRTIRMKLEYEKCERSCKIQKKNRNKCQYCRFQKCLALGMTHNAIRF [S69T] | -0.013 ± 0.052
NMECRVCGDKASGFHYGVHACEGCKGFFRRTIRMKLEYEKCERSCKIQKKNRNKCQYCRFQKCLALGMSHDAIRF [N71D] | 0.103 ± 0.064
NMECRVCGDKASGFHYGVHACEGCKGFFRRTIRMKLEYEKCERSCKIQKKNRNKCQYCRFQKCLALGMSHCAIRF [N71C] | -0.246 ± 0.089
NMECRVCGDKASGFHYGVHACEGCKGFFRRTIRMKLEYEKCERSCKIQKKNRNKCQYCRFQKCLALGMSHFAIRF [N71F] | -0.477 ± 0.11
NMECRVCGDKASGFHYGVHACEGCKGFFRRTIRMKLEYEKCERSCKIQKKNRNKCQYCRFQKCLALGMSHEAIRF [N71E] | 0.142 ± 0.048
NMECRVCGDKASGFHYGVHACEGCKGFFRRTIRMKLEYEKCERSCKIQKKNRNKCQYCRFQKCLALGMSHKAIRF [N71K] | -0.127 ± 0.051
NMECRVCGDKASGFHYGVHACEGCKGFFRRTIRMKLEYEKCERSCKIQKKNRNKCQYCRFQKCLALGMSHHAIRF [N71H] | -0.173 ± 0.074
NMECRVCGDKASGFHYGVHACEGCKGFFRRTIRMKLEYEKCERSCKIQKKNRNKCQYCRFQKCLALGMSHAAIRF [N71A] | -0.036 ± 0.045
NMECRVCGDKASGFHYGVHACEGCKGFFRRTIRMKLEYEKCERSCKIQKKNRNKCQYCRFQKCLALGMSHLAIRF [N71L] | -0.412 ± 0.054
NMECRVCGDKASGFHYGVHACEGCKGFFRRTIRMKLEYEKCERSCKIQKKNRNKCQYCRFQKCLALGMSHIAIRF [N71I] | -0.361 ± 0.14
NMECRVCGDKASGFHYGVHACEGCKGFFRRTIRMKLEYEKCERSCKIQKKNRNKCQYCRFQKCLALGMSHGAIRF [N71G] | -0.038 ± 0.035
